Measurements taken from the DeepSol protein solubility set.

Assay: soluble on expression in E. coli; label from the status in PepcDB or PDB records

Sequence | soluble on expression in E. coli
MSLRITTLEELLEALDELFDDGSDLTRRGAQDPWERVFSQPGHPLASDLPDACLVDWTRQGLLPSGDGLTALDLGCGLGRNARWLARQGYAVTGLDLSPYAVGQARERTPGPDIRYLEGDVLRDPIPGGPFDVVYDSGCFHHLPPHRRLSYLHTLGQVLRPGGWFGLCTFAWGRMGSAKSDLELLRQGQLEGGVGYTLDDLREMFGGLDFVTGSLLSELEPASEPVFQMDFLQAALFRREGHHHHHH | soluble
MSLRLALRQVDGAALALRRCGEAWAGQDVRIAYPPSHGCWLKVAGADGSWQGWLQPRAWLRHMAPELASLASAAGMDDRLSELIAACEAPLSWPVADMPLGRIVAGERREGSQLPQRPMLRMDTPQGEVWLEKAPAPAEAARDRVPGWLPMPLRFLLGDSMVSPSLLRRAKAGDVLLISRPAQTVSCNGRAIGTYQWTEEGIIMEWQNEMAAAAETRPLADLDRLPVRLEFVLQQSEVTLDELRELCRSNVLPLSADAERRVELRANGALLGRGELVQLDGRLGVEVAQWLGGSGDVEEGHHHHHH | soluble
MSLRLKILIKLSGAGMSADSSEPFSNQFLETVIAQLKQLVPNYQIGIVIGGGNIMRGKSCSDYNITEIAGHHLGIMATVINGAFLKAKFDSHKLNSTLLSAVSCPSLATHIVSQATIDDAFKNHDIVIFAGGTGNPYFSTDTAVALRATQMQADIILIGKNGVDGVYTADPKKDKHAKFLASLTYAEAIKNDLQIMDITAFTMCKENNLKVIIFNINAEHAIIKALSKQGKYTLIEKEGHHHHHH | soluble
MSLRLKVSFQAMESTVPLNYNYFLSSFIYKRLASQNENFARFLHEKGYGKRFKFFTFSQLFFENSRVSGERIFIFPGKGWWYISSPVVEFVRYMFSSLSEDPVIRVGKTEFIVKSIDIENSLPDQSEYHFVMLSPLVVSVPEENNGKLYHRYLHPGEEEFYEVFRKNLMKKYRAFYGKDPEGTVEVIPDWDYIKSRHRITKRIKLKNAFVRAVVFPFKIRGEKKLVEIGYEAGFGEKNSMGFGMVALKKYEREGHHHHHH | soluble
MSLRNQSKMPLVERLDAHAKSCPISLHVPGHKSGAIYPDAWQKLLKWDVTEITGMDDLHHPEDVILEAEELLAECYGSKKSYFLVNGTSGGNVAVIMATLKRGEKVLVPRDAHKSILHGIELAGGEPIFLTPATNKEVGVASGVTTELLEETLHNHPDVKLCIFTYPSYYGTTFNLQKCIRIAHDFGAVVFVDEAHGAHFLTSSEFPKSAVELGADVVVQSAHKTLPALTMGSYLHVVNDLPIFEKLAYYLQVFQTSSPSYLIMASLDAARKYVATYTAADVEAFWKMRARWIKWLTKNKFEVILPDDPLKIIVRKTGYTGYELQAIFEESSYFPELADESQVLLILPLIKKGIDFTPISRIHSPMKKEIAKEPYEMSTPCASGLALTYEEMHARATEFVLLDEATTRVSAETISLYPPGIPAIIRGEGITEKHIRELKNIRTRHYQGGEKLAENYIRVFREGHHHHHH | soluble
MSLRPSLDAWTKMECVMVKIKTSDGLEGWGEAFGHVMAPGTEAVINQILAPMLVGKDSVAINHRVAEMERPLHGLGRSGPVMYGLSAIDTALWDLAAQRANLPLFKFLGGDSGVLTKYASLMRYGGDTDAVAQNVERARSYGFRTIKLHETTIPAFRAARNAVDFDDKICLDVNCPWTVSEARDVAQEILEDGFHWLEEPIWPPEDFEGLAEVRLEGVPISAGENITTLHEFKLALETEAVDNLQPSVTKCGGVSMMRKIFSLSEVYPVTVIPHCFYWGPGYHATAHLAASCLNSTPLETAFITFAVEPHNLFNSHSDKVTLDDTPGLGFNANWEALDQFIISTNEVTEGHHHHHH | soluble
MSLRPTIYDVAKAAGVSKSLVSLVLRGSPNVSKESEAAVKTAIKKLNYQPNRAASDLAAKRTQLIAVLIDDYSNPWFIDLIQSLSDVLTPKGYRLSVIDSLTSQAGTDPITSALSMRPDGIIIAQDIPDFTVPDSLPPFVIAGTRITQASTHDSVANDDFRGAEIATKHLIDLGHTHIAHLRVGSGAGLRRFESFEATMRAHGLEPLSNDYLGPAVEHAGYTETLALLKEHPEVTAIFSSNDITAIGALGAARELGLRVPEDLSIIGYDNTPLAQTRLINLTTIDDNSIGVGYNAALLLLSMLDPEAPHPEIMHTLQPSLIERGTCAPREGHHHHHH | soluble
MSLRPVPSGQDPIKVVHYSDIHVDQLYTEGSNAKCNKPICCRQVKIIRHTHKSWTDFSRPFTENDEPGKTDSPAGPFGEHTCDSPVSLEHSMYQAIKEIVPDASFTIFTGDVVDHSIWNTTWDYNKHQIIESYENMDKHLGIVYGTAGNHESHPTNAYQPSSIGGASSWIYDLLAGAWSRWIGHEAASKAAQIGAYSTKFPHGNLRVISLNTNLYYRGNFWLFQRKMIRDPSKQFDWLIEELHAAEKAGERVYIIGHMPPGDRNAFHDQSNYLNQIVNRYSSTIAAMFFGHTHRDHFQITYSEAPKKSFSNALLTSYVGPSLTPTSGMPSFRVYDVDPITFAVLDATTYSADMNSPTYQTQGPVWKKYYSAKETYGEGHHHHHH | not soluble
MSLRTTESEKGLRMPGLPPMVAPPAEQVDDPVTATDAANAVDAVLRGVLDERLRHCRAVDPLFARELADRLAALTARGGKRLRTAFAHCGWRAAGGSGDATAVLRTGAALELLQACALVHDDVMDGSVQRRGAPALHVDLARGHWAAGMHGSSESFGTSAAVLTGDLALAWADDLLTETALGTPHGPRLHGEWRAMRTEMVAGQYRDLHAQAARSSGVDEALAIATLKSALYTVARPLALGAVLAGAADGDALEALRAAGRCAGLAFQLRDDLLGAFGDPALTGKPADDDLRSRKLTYLLAVAVRLADAADDHLAAAALAPDADPKSEKAVRQVRSALVRTGARDLVETKIGELTDMSLAHFDRCGARPAVRHEFAALIGRATGAVPRGTGEVVEGHHHHHH | soluble
MSLSAFFAHLHLHSEFSLQDGLIRVKPLMQAVAQAGMPAVALTDQGNLFGAVKFYRAAVNAGVKPIIGAEIRVADADASERPARLVLLCADTQGYRTLTRLLTRGYLEGQQQGVPVVDREWLRGRCAGLIGLSGGRVGDVGRALLSGEPALAARKLEFWREQFGDRYYLELQRTGRPGDEEHVQAAVELATAHGVAVVATNDVCFLRPEDEGHHHHHH | not soluble
MSLSAYSQVSIDKTMFVEGREFLHIDQAGWVAKESTSEEDNRMSKVQEMLSEKYQKDSFSIYVKQLTTGKEAGINQDEKMYAASVLKLSYLYYTQEKINEGLYQLDTTVKYVSAVNDFPGSYKPEGSGSLPKKEDNKEYSLKDLITKVSKESDNVAHNLLGYYISNQSDATFKSKMSAIMGDDWDPKEKLISSKMAGKFMEAIYNQNGFVLESLTKTDFDSQRIAKGVSVKVAHKIGDADEFKHDTGVVYADSPFILSIFTKNSDYDTISKIAKDVYEVLKEGHHHHHH | soluble
MSLSDDSMIDAPLTRADAVSEKIVFQDDFNQVDSIPDRNKWSLCKKGSPAWSKYLSESYDQAYVHDGKLVLVAEKVNGVYKTGGVQSLGKAEFQYGKIEICARFTKTAKGGWPAIWMMPAKPVYSGWPACGEIDIMEQLNHDGIVYQTIHSHYKNDLGFTKPVPTKTVSYNKGQFNIFGIEWTPEALTFKVNGATTLVYPNLHLADESVKKQWPFDTSFYLILNYALGGPGTWPGTIMDSELPAKMEIDWVKVSQPRGREGHHHHHH | soluble
MSLSDSENGGSKTAILCNDLADSYLESYPTVTLEDGVTRTYHNGVYQECRNKYIINNRMMDIAEDMGIVLTPKQIQDALEIVRNKTPFTESKTPINLIPVGNGVLDINTMELSDYSPETVLLTKFPRDYNPSAATPSKFMEMLNTTFDGSEEQIKLVQEMFGYCFLRSYFLEVIFFLIGNGRNGKTTLLSILGALLGGEESGHISSLSFKDLSEPKNENMLCDLYGRYANICGDTGKHKIKETDYIKKVTGNDFVRARKLYKDSFNFKSFAKVILAFNQLPEVDDFSDGFKRRIRIIEFNHKFEDGAGANKNIEAEITGDEEEMEGIFLWAMEGLKRILENNSFSDKRSIVSRGMEYARKSNPMHYFVRECIVESPGHFVNKADLIEKYVEYAEYNKMPQLTPQAFKKGLIAECTDISINTFEKRDQTKTGRPFGFMHIDIDLESWKKHTGKADNASPVEPKEDSKQTQFKELEIQIATTDEEIRKVAEDMASTASEGHHHHHH | soluble
MSLSDSRSDDRHPSVTPEQLATLSHEFRTPLNGVLGMARLLENTKLTAEQRSYVTALRESGDHLLSLVNDVLHFARLGAAAIELSLAPVDIEGLLRQVAELMSPRAHEKGIEIAWAVSSPLPTILADEGRLRQILLNFAGNAVKFTEAGGVLLTASAIDGGRVRFSVADTGPGVAPDARARIFEAFVQTDVTHATQLGGAGLGLAIVSRLSAAMGGAVGVGGELGQGAEFWFEAPFATAAAPLRAAPLEGRNVAIASPNAIVRAATARQIEAAGGRAYAAVDIASALAGAPADAVLLIDAALSGPRGALKPPAGRRSVVLLTPEQRDRIDRLKAAGFSGYLIKPLRAASLVAQVLQAVTADGVAEDEPAHDDRIAGAVASGARVLLAEDNPINALLARTLLEREGCIVDRVADGEQAIAAASAGVYDLILMDLRMPGLTGIEAARALRAKGVATPIAALTADAFDEDRRTCLAAGMDDFLVKPLTQEALRDALKRWTTGGVSGEGHHHHHH | soluble
MSLSDTIPVFDGHNDFLLRLLRNPANRETIWLKGDGTGHLDLPRMKEGGFAGGFFAIYVPSPQAHDAAHFEAMMDAPPFELPLPPMIRAEQAQPVALAMAGHLLWMERAARGRFKVCRTAAEVRSCHADGIVSGIMHMEGAEAIGADLDALHLFHSLGLRSLGPVWSRPTVFGHGVPFRFPGSPDTGEGLTEAGRRLVAECNRLKIMLDLSHLNEKGFDDVARLSDAPLVATHSNAHAVTPSTRNLTDRQLAMIRESRGMVGLNFATSFLREDGRRSAEMGWEPVLRHLDHLIDRLGEDHVGMGSDFDGATIPQGIADVTGLPALQAAMRAHGYDEPLMRKLCHENWYGLLERTWGEGHHHHHH | soluble
MSLSEAVERQTLTIANSKAWKPYSYLDEQGQPSGILIDFWLAFGEANHVDIEFQLMDWNDSLEAVKLGKSDVQAGLIRSASRLAYLDFAEPLLTIDTQLYVHRTLLGDKLDTLLSGAINVSLGVVKGGFEQEFMQREYPQLKLIEYANNELMMSAAKRRELDGFVADTQVANFYIVVSNGAKDFTPVKFLYSEELRPAVAKGNRDLLEQVEQGFAQLSSNEKNRILSRWVHIETIYPRYLMEGHHHHHH | soluble
MSLSEPILFVDDEQHVLNALQRVFSESGLETVFTRSPIEALELCRSKKFAVIVSDNMMPEMKGIELLTRIKEESPETVKCLLTAHADLDTALQAINSGEVFRFIVKPWRNEELYQAVSEGVARFRIWDALRQHDEGVLHSLAETIELKDHYTRGHCNRVADHALRICELLKLPSTTSREIRYGSWLHDCGKIGVPETILNSTCMLSEQEMIVVRKHPEWGANVAQQANLSPTLINIIRHHHERFDGTGYPFGLKGVSIPLEARIVAVADVFDALTTDRPYKPAMSFAKAHKLMGDMRGNHLEGRLVDMFFQTLDTEKTGSEGHHHHHH | not soluble
MSLSGKKVIYFIPIVDTGAYWSPMKKAAEDEAKALGYDLVVKTSPPNETQKNEKHIGFLDEAIKNKAAGIAIAPMDPDMFDKKVKEANDKGIPVVTFDADVKTKENRTSYIGTDNKLAGEQLGENGAKALKEKGITKGKIAMAAVNLTQTTMTYRQDGIKSGFEKVMGADAKNFEWLEPIQDNDQSAESKRQLEGQITSNSDMVAVFSLGSEGPDTGVMEAIKSQGKSGSIYHFGFDYTPTWENGVSSNLISGIVDQDSYAIGKTIIDTLDKKIKGEKVDDVYPVPVKWVTPDKIVEYGKEKQKQFTTELKGIITITTDPNSSSVDKLAAALEHHHHHH | soluble
